Earlier results as cited in article PMC6627431.

How the values were obtained:
KV1.2 = KV1.2 (UniProt P16389)
KV1.3 = KV1.3 (UniProt P22001)
KV1.1 = KV1.1 (UniProt Q09470)
Sequence of UniProt Q09470 (Q09470 whole entry): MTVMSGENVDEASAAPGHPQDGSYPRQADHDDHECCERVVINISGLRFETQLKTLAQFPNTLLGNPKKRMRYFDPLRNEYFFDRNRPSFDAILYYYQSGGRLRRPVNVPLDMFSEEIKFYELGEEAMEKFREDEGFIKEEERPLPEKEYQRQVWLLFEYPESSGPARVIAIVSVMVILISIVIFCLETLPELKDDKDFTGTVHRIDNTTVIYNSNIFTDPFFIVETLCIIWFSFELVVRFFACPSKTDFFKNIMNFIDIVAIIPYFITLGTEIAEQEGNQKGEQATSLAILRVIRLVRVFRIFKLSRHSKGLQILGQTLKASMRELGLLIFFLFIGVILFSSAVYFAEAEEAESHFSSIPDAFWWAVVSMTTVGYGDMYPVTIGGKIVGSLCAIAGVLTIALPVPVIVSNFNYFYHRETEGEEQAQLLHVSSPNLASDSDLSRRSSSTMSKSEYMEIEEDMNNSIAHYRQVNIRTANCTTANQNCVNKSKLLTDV

Sequence of UniProt P22001 (P22001 whole entry): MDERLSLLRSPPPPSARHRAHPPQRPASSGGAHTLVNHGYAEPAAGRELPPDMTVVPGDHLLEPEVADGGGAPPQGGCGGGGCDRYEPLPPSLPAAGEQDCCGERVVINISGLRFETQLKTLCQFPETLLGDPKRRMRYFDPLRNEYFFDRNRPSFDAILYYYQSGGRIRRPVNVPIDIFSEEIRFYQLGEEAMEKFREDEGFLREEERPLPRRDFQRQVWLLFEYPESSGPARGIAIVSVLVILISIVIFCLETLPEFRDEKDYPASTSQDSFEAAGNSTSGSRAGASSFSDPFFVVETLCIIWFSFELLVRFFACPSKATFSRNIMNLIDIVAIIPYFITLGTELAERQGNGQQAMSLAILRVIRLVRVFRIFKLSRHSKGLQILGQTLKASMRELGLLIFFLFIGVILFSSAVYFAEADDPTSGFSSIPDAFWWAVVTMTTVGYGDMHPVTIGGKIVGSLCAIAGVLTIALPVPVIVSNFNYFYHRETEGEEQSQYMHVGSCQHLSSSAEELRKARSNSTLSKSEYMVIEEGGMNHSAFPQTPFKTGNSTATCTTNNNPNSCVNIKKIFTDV
Sequence of UniProt P16389 (P16389 whole entry): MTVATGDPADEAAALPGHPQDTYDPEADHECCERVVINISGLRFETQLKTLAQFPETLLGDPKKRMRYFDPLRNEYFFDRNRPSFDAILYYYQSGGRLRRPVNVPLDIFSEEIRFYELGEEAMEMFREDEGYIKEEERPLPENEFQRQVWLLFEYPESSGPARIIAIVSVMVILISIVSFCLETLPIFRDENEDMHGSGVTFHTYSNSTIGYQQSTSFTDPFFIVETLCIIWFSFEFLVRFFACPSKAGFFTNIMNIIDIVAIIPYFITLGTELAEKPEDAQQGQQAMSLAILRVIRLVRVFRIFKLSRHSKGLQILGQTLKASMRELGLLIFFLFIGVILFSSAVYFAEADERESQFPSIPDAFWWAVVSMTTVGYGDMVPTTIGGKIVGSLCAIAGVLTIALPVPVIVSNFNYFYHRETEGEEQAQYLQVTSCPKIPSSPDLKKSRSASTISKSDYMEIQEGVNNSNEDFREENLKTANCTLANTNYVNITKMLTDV

BgK (from UniProt P29186)
Kd (KV1.2): 15 nM
Kd (KV1.3): 10 nM
Kd (KV1.1): 6 nM
